Assay results as given in patent publication US20180237511A1 (Sanofi, published 2018).

T1: human beta-dystroglycan extracellular domain (soluble) (human, UniProt Q14118 654-749)
T1 construct: extracellular domain; The expression construct of soluble human beta-DG is not described (only the mouse one); One entry is used for all soluble human beta-DG, also for the crystal structure; also called hBeta-DG; hbeta-DG
T1 sequence (looked up): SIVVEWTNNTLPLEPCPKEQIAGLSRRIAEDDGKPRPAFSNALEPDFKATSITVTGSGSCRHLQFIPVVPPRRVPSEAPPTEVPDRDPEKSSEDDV

T2: murine beta-dystroglycan extracellular domain (mbeta-DG ECD), HPC4 tagged (mouse, UniProt Q62165 652-746)
T2 construct: range 652-746; Made in E. coli as MBP fusion; MBP cleaved off with TEV protease; also called mbeta-DG-HPC4; murine beta-DG; not shown: C-terminal HPC4 tag
T2 sequence (looked up): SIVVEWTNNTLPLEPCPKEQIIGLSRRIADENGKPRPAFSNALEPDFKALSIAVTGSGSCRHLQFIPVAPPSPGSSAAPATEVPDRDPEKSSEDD

T3: Fabrazyme (agalsidase beta, Genzyme) (UniProt P06280 32-429)
T3 construct: Negative control protein on the dot blots
T3 sequence (looked up): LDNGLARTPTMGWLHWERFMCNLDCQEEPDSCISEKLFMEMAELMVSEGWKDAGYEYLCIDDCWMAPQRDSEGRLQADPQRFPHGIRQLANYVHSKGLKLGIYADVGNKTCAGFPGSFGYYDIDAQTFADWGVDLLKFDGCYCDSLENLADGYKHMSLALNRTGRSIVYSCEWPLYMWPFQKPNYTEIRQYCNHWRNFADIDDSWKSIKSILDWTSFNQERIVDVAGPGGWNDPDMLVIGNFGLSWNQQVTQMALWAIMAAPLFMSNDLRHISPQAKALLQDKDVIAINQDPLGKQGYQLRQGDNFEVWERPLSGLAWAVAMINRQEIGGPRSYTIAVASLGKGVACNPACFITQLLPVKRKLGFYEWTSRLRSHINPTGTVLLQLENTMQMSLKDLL


Tests used:
[1] = biological target: T1, human beta-dystroglycan extracellular …; assay: SPR (Biacore) kinetics; mAb immobilized, hBeta-DG in flow
[2] = biological target: T2, murine beta-dystroglycan extracellular …; assay: SPR (Biacore) kinetics; mAb immobilized, mBeta-DG in flow
[3] = biological target: T3, Fabrazyme (agalsidase beta, Genzyme); assay: dot blot: protein dotted on nitrocellulose (250 to .016 ng), probed with AS19
[4] = biological target: T2, murine beta-dystroglycan extracellular …; assay: SPR (Biacore) kinetics, antibody as ligand on the chip, sample mBDg in flow, fit 1:1 Binding
[5] = biological target: T1, human beta-dystroglycan extracellular …; assay: dual binding sandwich ELISA on coated human beta-DG, read out through LG4/5-mFc (5 ug/mL)
Protocol: A dual binding sandwich ELISA was performed by coating Thermo Nunc Immobilized SA 96 well plates with either 2 ug/mL of biotinylated N′Avi-HPC4-human LG4/5 or biotinylated human-beta DG-HPC4-Avi-C′. After overnight incubation at 4° C., the plates were blocked with PBS+1% BSA+0.1% Tween for 1 hour at room temperature. After washing (BioTek ELx405 Select CW) with PBS, the trivalent or parental antibodies were added to the plate started at 8 ug/mL and a 2-fold dilution was performed across the plate, antibody was incubated for 1 hour at room temperature. After washing, the second antigen of beta-DG-mFc (FIG. 1A) or LG4/5-mFc was added at 5 ug/mL. Following the second antigen, a secondary antibody of donkey anti-mouse (Jackson ImmunoResearch) at a 1:2,000 dilution was added for 30 minutes. ABTS was resuspended in ABTS buffer (Roche) and added to the wells for detection. Resulting signal was read with the Perkin Elmer EnVision Multimode Plate Reader at 405 nm.
To show binding of the triAbs to both antigens, a dual binding sandwich ELISA was performed as described above using 2 ug/mL of biotinylated N′Avi-HPC4-human LG4/5 (FIG. 14A) or biotinylated human-beta DG-HPC4-Avi-C′ (FIG. 14B).

[6] = biological target: T1, human beta-dystroglycan extracellular …; assay: SPR, antibody on Protein G chip, beta-DG in flow, 1:1 model (table title says laminin-2; paragraph 445 says human beta-DG)
Protocol: Data was evaluated with a 1:1 binding model using the BIAevaluation software.
SPR was used as described above to analyze the kinetics of triAb binding to laminin-2 (Table N) or beta-DG (Table O).

Binder	Kd [1] [nM]	Kd [2] [nM]	binding result [3]	koff [4] [s⁻¹]	kon [4] [M⁻¹ s⁻¹]	EC50 (read off the curve) [5] [µg/mL]	Kd [6] [nM]	koff [6] [s⁻¹]	kon [6] [M⁻¹ s⁻¹]
anti-beta-DG antibody derived from hybridoma clone AS19 (antibody, V domains shown, Hybridoma monoclonal antibody (detected with anti-mouse IgG)) VH: QVQLQQSGPELVKPGASVKMSCKASGFTFTDSVISWVKQRTGQGLEWIGEIYPGSGSIYYNEKFKGKATLTADKSSNTAYMQLRSLTSEDSAVYFCAMRRSYWGQGTLVTVSA VL: DVLMTQTPLSLPVSLGDQASISCRSSQSIVHSNGNTYLEWYLQKPGQSPKLLIYKVSNRFSGVPDRFSGSGSGTDFTLKISRVEAEDLGVYYCFQGSHVPLTFGAGTKLELK	2.06	3.38	no binding (tested: 250 ng)	0.000667	110000	–	–	–	–
triAb 3407 (bispecific antibody, knob-in-hole, NNAS, YTE and RF variants) light 1: EIVLTQSPDFLSVTPKEKVTLTCRASQSISNNLHWYQQKSDQSPKLLIKYASQSISGIPSRFSGSGSGTDFTLTINSVEAEDAATYFCQQSKSWPRTFGGGTKLEIKDKTHTEIVLTQSPDFLSVTPKEKVTLTCRASQSISNNLHWYQQKSDQSPKLLIKYASQSISGIPSRFSGSGSGTDFTLTINSVEAEDAATYFCQQSKSWPRTFGGGTKLEIKDKTHTRTVAAPSVFIFPPSDEQLKSGTASVVCLLNNFYPREAKVQWKVDNALQSGNSQESVTEQDSKDSTYSLSSTLTLSKADYEKHKVYACEVTHQGLSSPVTKSFNRGEC heavy 1: EVQLVESGGGLVKPGGSLRLSCAASGFTFSSYTMSWVRQAPGKGLEWVASISSSGSNTYYPDSVKGRFTISRDNAKNNLYLQMNSLRAEDTALYYCARFDYGSSLDSWGQGTLLTVSSDKTHTEVQLVESGGGLVKPGGSLRLSCAASGFTFSSYTMSWVRQAPGKGLEWVASISSSGSNTYYPDSVKGRFTISRDNAKNNLYLQMNSLRAEDTALYYCARFDYGSSLDSWGQGTLLTVSSDKTHTASTKGPSVFPLAPSSKSTSGGTAALGCLVKDYFPEPVTVSWNSGALTSGVHTFPAVLQSSGLYSLSSVVTVPSSSLGTQTYICNVNHKPSNTKVDKKVEPKSCDKTHTCPPCPAPELLGGPSVFLFPPKPKDTLYITREPEVTCVVVDVSHEDPEVKFNWYVDGVEVHNAKTKPREEQYNNASRVVSVLTVLHQDWLNGKEYKCKVSNKALPAPIEKTISKAKGQPREPQVYTLPPCRDELTKNQVSLWCLVKGFYPSDIAVEWESNGQPENNYKTTPPVLDSDGSFFLYSKLTVDKSRWQQGNVFSCSVMHEALHNHYTQKSLSLSPG heavy 2: QVQLVQSGAEVVKPGSSVKVSCEASGFTFTDSVITWVRQRPGQGLEWIGEIYPGSGNFYYNEKFQGRVTITADKSTSTAYMELSSLRSEDTAVYFCAMRRSSWGQGTLVTVSSASTKGPSVFPLAPSSKSTSGGTAALGCLVKDYFPEPVTVSWNSGALTSGVHTFPAVLQSSGLYSLSSVVTVPSSSLGTQTYICNVNHKPSNTKVDKKVEPKSCDKTHTCPPCPAPELLGGPSVFLFPPKPKDTLYITREPEVTCVVVDVSHEDPEVKFNWYVDGVEVHNAKTKPREEQYNNASRVVSVLTVLHQDWLNGKEYKCKVSNKALPAPIEKTISKAKGQPREPQVCTLPPSRDELTKNQVSLSCAVKGFYPSDIAVEWESNGQPENNYKTTPPVLDSDGSFFLVSKLTVDKSRWQQGNVFSCSVMHEALHNRFTQKSLSLSPG light 2: DVVMTQTPLSLSVTPGQPASISCKSSQTIVHSNSKTYLEWYLQKPGQSPQLLIYKVSSRFSGVPDRFSGSGSGTDFTLKISRVEAEDVGVYYCFQGSHVPLTFGQGTKLEIKRTVAAPSVFIFPPSDEQLKSGTASVVCLLNNFYPREAKVQWKVDNALQSGNSQESVTEQDSKDSTYSLSSTLTLSKADYEKHKVYACEVTHQGLSSPVTKSFNRGEC	–	–	–	–	–	~0.1	2.08	0.00326	1.57e+06
